Measured values as given in publication PMC7690626.

Molecular target: T22-GFP-H6 protein nanoparticle (unlabeled) (horseshoe crab | not stated)
Test: SEC-MALS; Superdex 200 increase 10/300 GL; 166 mM NaHCO3, 333 mM NaCl, 0.1 mM NiCl2, pH 8; average molar mass of the self-assembled nanoparticles, in duplicate

Substance “T22-GFP-H6 protein nanoparticle (unlabeled)” has a stoichiometry N of 10 copies.
